From doi:10.1101/2022.05.02.490369

Target: RPP1^TIR (residue 83-254) (Arabidopsis) (UniProt F4J339)
Assay: crystal structure

RPP1^TIR (residue 83-254) (from UniProt F4J339 83-254) (domain or fragment)
stoichiometry N: 4
